Data taken from PMC5342195, “Structure-based mutational analysis of ICAT residues mediating negative regulation of β-catenin co-transcriptional activity” (PLoS ONE, 2017).

B1: endogenous β-catenin of Mel501 cells (natural protein, human (endogenous in Mel501), UniProt P35222 1-781, looked up)
chain: MATQADLMELDMAMEPDRKAAVSHWQQQSYLDSGIHSGATTTAPSLSGKGNPEEEDVDTSQVLYEWEQGFSQSFTQEQVADIDGQYAMTRAQRVRAAMFPETLDEGMQIPSTQFDAAHPTNVQRLAEPSQMLKHAVVNLINYQDDAELATRAIPELTKLLNDEDQVVVNKAAVMVHQLSKKEASRHAIMRSPQMVSAIVRTMQNTNDVETARCTAGTLHNLSHHREGLLAIFKSGGIPALVKMLGSPVDSVLFYAITTLHNLLLHQEGAKMAVRLAGGLQKMVALLNKTNVKFLAITTDCLQILAYGNQESKLIILASGGPQALVNIMRTYTYEKLLWTTSRVLKVLSVCSSNKPAIVEAGGMQALGLHLTDPSQRLVQNCLWTLRNLSDAATKQEGMEGLLGTLVQLLGSDDINVVTCAAGILSNLTCNNYKNKMMVCQVGGIEALVRTVLRAGDREDITEPAICALRHLTSRHQEAEMAQNAVRLHYGLPVVVKLLHPPSHWPLIKATVGLIRNLALCPANHAPLREQGAIPRLVQLLVRAHQDTQRRTSMGGTQQQFVEGVRMEEIVEGCTGALHILARDVHNRIVIRGLNTIPLFVQLLYSPIENIQRVAAGVLCELAQDKEAAEAIEAEGATAPLTELLHSRNEGVATYAAAVLFRMSEDKPQDYKKRLSVELTSSLFRTEPMAWNETADLGLDIGAQGEPLGYRQDDPSYRSFHSGGYGQDALGMDPMMEHEMGGHHPGADYPVDGLPDLGHAQDLMDGLPPGDSNQLAWFDTDL
notes: β-catenin, endogenous in the human melanoma cell line Mel501; also called CTNNB1; source: endogenous, Mel501 total cell lysate
B2: HA-tagged β-catenin-NLS Δ665 (D665X) (domain or fragment, UniProt P35222 1-664, looked up)
chain: MATQADLMELDMAMEPDRKAAVSHWQQQSYLDSGIHSGATTTAPSLSGKGNPEEEDVDTSQVLYEWEQGFSQSFTQEQVADIDGQYAMTRAQRVRAAMFPETLDEGMQIPSTQFDAAHPTNVQRLAEPSQMLKHAVVNLINYQDDAELATRAIPELTKLLNDEDQVVVNKAAVMVHQLSKKEASRHAIMRSPQMVSAIVRTMQNTNDVETARCTAGTLHNLSHHREGLLAIFKSGGIPALVKMLGSPVDSVLFYAITTLHNLLLHQEGAKMAVRLAGGLQKMVALLNKTNVKFLAITTDCLQILAYGNQESKLIILASGGPQALVNIMRTYTYEKLLWTTSRVLKVLSVCSSNKPAIVEAGGMQALGLHLTDPSQRLVQNCLWTLRNLSDAATKQEGMEGLLGTLVQLLGSDDINVVTCAAGILSNLTCNNYKNKMMVCQVGGIEALVRTVLRAGDREDITEPAICALRHLTSRHQEAEMAQNAVRLHYGLPVVVKLLHPPSHWPLIKATVGLIRNLALCPANHAPLREQGAIPRLVQLLVRAHQDTQRRTSMGGTQQQFVEGVRMEEIVEGCTGALHILARDVHNRIVIRGLNTIPLFVQLLYSPIENIQRVAAGVLCELAQDKEAAEAIEAEGATAPLTELLHSRNEGVATYAAAVLFRMSE
notes: β-catenin of the HA-tagged CMV::β-catenin-NLS expression vector, truncated by a premature stop codon at residue 665 (D665X); lacks helix C (residues 667-683) and the C-terminal domain; If the NLS stood at the C-terminus of the parent construct, the stop codon would remove it; also called β-catenin Δ665; source: Lu1205 cells, transfected, in total cell lysate

Tests used:
[1] = molecular target: T1, ICAT D66G + F71A + E75V (GAV), Flag-tagged (human, UniProt Q9NSA3 1-81, D66G | F71A | E75V); experiment: co-IP; total cell lysates of Mel501 cells transfected with ICAT-Flag WT or mutants, anti-Flag monoclonal antibody 2 h at 4°C, Protein G agarose, washed with RIPA; blot for endogenous β-catenin; densitometry with ImageJ, control fixed to 1.0; settings: partners not purified
T1 construct: ICAT, human cDNA of 243 bp in pFLAG-CMV2, triple mutant of the C-terminal domain; also called ICAT-GAV; source: Mel501 cells, transiently transfected, in total cell lysate
T1 sequence (looked up): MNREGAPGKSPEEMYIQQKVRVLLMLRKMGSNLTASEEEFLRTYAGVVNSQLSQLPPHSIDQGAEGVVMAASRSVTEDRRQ

[2] = molecular target: T2, ICAT F71A + E75V (AV), Flag-tagged (human, UniProt Q9NSA3 1-81, F71A | E75V); experiment: as above; settings: partners not purified
T2 construct: ICAT, human cDNA of 243 bp in pFLAG-CMV2, double mutant of the C-terminal domain; also called ICAT-AV; source: Mel501 cells, transiently transfected, in total cell lysate

[3] = molecular target: T3, ICAT D66G + F71A (GA), Flag-tagged (human, UniProt Q9NSA3 1-81, D66G | F71A); experiment: as above; settings: partners not purified
T3 construct: ICAT, human cDNA of 243 bp in pFLAG-CMV2, double mutant of the C-terminal domain; also called ICAT-GA; source: Mel501 cells, transiently transfected, in total cell lysate

[4] = molecular target: T4, WT ICAT-GST recombinant protein (human, UniProt Q9NSA3 1-81); experiment: pull-down; WT ICAT-GST on glutathione-Sepharose 4B beads incubated 3 h at 4°C with total cell lysate in RIPA (500 μg of total proteins) of Lu1205 cells transfected with HA-tagged β-catenin-NLS WT or mutants; washed five times; anti-HA blot; densitometry with ImageJ; settings: one partner purified
T4 construct: ICAT, WT human cDNA cloned in the bacterial expression vector pGEX-4T3; also called recombinant WT ICAT-GST protein

reduction of co-precipitated β-catenin against ICAT WT [1] [%] | reduction of co-precipitated β-catenin against ICAT WT [2] [%] | reduction of co-precipitated β-catenin against ICAT WT [3] [%] | fold of pulled-down protein against full-length WT β-catenin [4] [fold] | Binder
> 70 | > 70 | > 70 |  | B1
 |  |  | 1.5 | B2
